Source: US20250034271A1 (EUCURE BEIJING BIOPHARMA, published 2025)

These binders were tested against T1, Histidine-tagged human CD40 protein (hCD40-His) (human, UniProt P25942 21-193) (assay: SPR, Biacore T200; antibody on Protein A chip, hCD40-His injected; 1:1 fit).
T1 construct: not shown: histidine tag
Method: The binding affinity of the anti-hCD40 antibodies were measured using surface plasmon resonance (SPR) using Biacore (Biacore, INC, Piscataway N.J.) T200 biosensor equipped with pre-immobilized Protein A sensor chips.
Anti-hCD40 antibodies were collected by transfecting CHO-S cells and then purified. The antibodies (1 μg/mL) were injected into Biacore T200 biosensor at 10 μL/min for about 24-33 seconds to achieve to a desired protein density (about 44-57 response units (RU)). […] Dissociation was monitored for 300 seconds. The chip was regenerated after the last injection of each titration with Glycine (pH 2.0, 30 μL/min for 12 seconds).

T1 sequence (P25942 21-193 limits assumed): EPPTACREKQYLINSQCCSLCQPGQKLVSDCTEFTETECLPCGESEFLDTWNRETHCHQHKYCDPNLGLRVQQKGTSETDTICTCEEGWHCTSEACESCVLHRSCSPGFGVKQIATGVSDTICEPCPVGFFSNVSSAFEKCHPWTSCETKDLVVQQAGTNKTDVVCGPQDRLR

Binder | Kd [nM] | koff [s⁻¹] | kon [M⁻¹ s⁻¹]
4H6-H2K2-IgG4 (antibody, V domains shown, Humanized) VH: EVQLQESGPGLVKPSQTLSLTCTVSGDSVSSGYWNWIRKHPGKKLEWIGFISYSGSTYYTPSLKSRVTISRDTSKNQFSLKLSSVTAADTAVYYCARFRRYDDGVDYWGQGTLVTVSS VL: DIQMTQSPSAMSASVGDRVTITCRASHEISGYLSWIQQKPGGTIKRLINAASTLASGVPSRFSGSRSGTEFTLTISSLQPEDFADYYCLQYSSYPWTFGGGTKLEIK | 138 | 0.057 | 414000
4H6-H2K4-IgG4 (antibody, V domains shown, Humanized) VH: EVQLQESGPGLVKPSQTLSLTCTVSGDSVSSGYWNWIRKHPGKKLEWIGFISYSGSTYYTPSLKSRVTISRDTSKNQFSLKLSSVTAADTAVYYCARFRRYDDGVDYWGQGTLVTVSS VL: DIQMTQSPSAMSASVGDRVTLTCRASHEISGYLSWIQQKPGGTIKRLINAASTLASGVPSRFSGSRSGTEYTLTISSLQPEDFADYYCLQYSSYPWTFGGGTKLEIK | 378 | 0.0742 | 196000
4H6-H2K1-IgG4 (antibody, V domains shown, Humanized) VH: EVQLQESGPGLVKPSQTLSLTCTVSGDSVSSGYWNWIRKHPGKKLEWIGFISYSGSTYYTPSLKSRVTISRDTSKNQFSLKLSSVTAADTAVYYCARFRRYDDGVDYWGQGTLVTVSS VL: DIQMTQSPSAMSASVGDRVTITCRASHEISGYLSWFQQKPGGVIKRLINAASTLASGVPSRFSGSRSGTEFTLTISSLQPEDFATYYCLQYSSYPWTFGGGTKLEIK | 447 | 0.227 | 507000
4H6-H4K1-IgG4 (antibody, V domains shown, Humanized) VH: EVQLQESGPGLVKPSQTLSLTCTVSGDSVSSGYWNWIRKFPGKKLEYMGFISYSGSTYYTPSLKSRITISRDTSKNQFSLKLSSVTAADTAVYFCARFRRYDDGVDYWGQGTLVTVSS VL: DIQMTQSPSAMSASVGDRVTITCRASHEISGYLSWFQQKPGGVIKRLINAASTLASGVPSRFSGSRSGTEFTLTISSLQPEDFATYYCLQYSSYPWTFGGGTKLEIK | 145 | 0.0269 | 185000
4H6-H4K3-IgG4 (antibody, V domains shown, Humanized) VH: EVQLQESGPGLVKPSQTLSLTCTVSGDSVSSGYWNWIRKFPGKKLEYMGFISYSGSTYYTPSLKSRITISRDTSKNQFSLKLSSVTAADTAVYFCARFRRYDDGVDYWGQGTLVTVSS VL: DIQMTQSPSAMSASVGDRVTITCRASHEISGYLSWIQQKPGGTIKRLINAASTLASGVPSRFSGSRSGTEYTLTISSLQPEDFADYYCLQYSSYPWTFGGGTKLEIK | 78.8 | 0.0257 | 327000
4H6-H3K3-IgG4 (antibody, V domains shown, Humanized) VH: EVQLQESGPGLVKPSQTLSLTCTVSGDSVSSGYWNWIRKHPGKKLEYMGFISYSGSTYYTPSLKSRITISRDTSKNQFSLKLSSVTAADTAVYFCARFRRYDDGVDYWGQGTLVTVSS VL: DIQMTQSPSAMSASVGDRVTITCRASHEISGYLSWIQQKPGGTIKRLINAASTLASGVPSRFSGSRSGTEYTLTISSLQPEDFADYYCLQYSSYPWTFGGGTKLEIK | 91.6 | 0.0286 | 312000
4H6-H4K4-IgG4 (antibody, V domains shown, Humanized) VH: EVQLQESGPGLVKPSQTLSLTCTVSGDSVSSGYWNWIRKFPGKKLEYMGFISYSGSTYYTPSLKSRITISRDTSKNQFSLKLSSVTAADTAVYFCARFRRYDDGVDYWGQGTLVTVSS VL: DIQMTQSPSAMSASVGDRVTLTCRASHEISGYLSWIQQKPGGTIKRLINAASTLASGVPSRFSGSRSGTEYTLTISSLQPEDFADYYCLQYSSYPWTFGGGTKLEIK | 88.9 | 0.0278 | 312000
7F10-H2K3-IgG4 (antibody, V domains shown, Humanized) VH: EVQLVESGGGLVQPGGSLRLSCATSGFTFSDYYMYWVRQAPGKRLEWVAYISYGGDSTFYPDTVRGRFTISRDNAKNSLYLQMSSLKAEDTAVYYCARPAPSAHSYYLDYWGQGTLLTVSS VL: DIQMTQSTSSLSASVGDRVTITCRASQDISNYLNWYQQKPGGAVKLLIYYTSRLHSGLPSRFSGSGSGTDYTLTISSLQQEDIATYYCQQGKTLPFTFASGTKLEIK | 182 | 0.0313 | 172000
7F10-H1K3-IgG4 (antibody, V domains shown, Humanized) VH: EVQLVESGGGLVQPGGSLRLSCATSGFTFSDYYMYWVRQAPGKRLEWVAYISYGGDSTFYPDTVRGRFTISRDNAKNSLYLQMNSLRAEDTAVYYCARPAPSAHSYYLDYWGQGTLLTVSS VL: DIQMTQSTSSLSASVGDRVTITCRASQDISNYLNWYQQKPGGAVKLLIYYTSRLHSGLPSRFSGSGSGTDYTLTISSLQQEDIATYYCQQGKTLPFTFASGTKLEIK | 535 | 0.0391 | 73100

More lines, now with the values ahead:

Kd [nM] | koff [s⁻¹] | kon [M⁻¹ s⁻¹] | Binder
465 | 0.0695 | 149000 | 4H6-H1K4-IgG4 (antibody, V domains shown, Humanized) VH: QVQLQESGPGLVKPSQTLSLTCTVSGDSVSSGYWNWIRKHPGKKLEWIGFISYSGSTYYTPSLKSRVTISRDTSKNQFSLKLSSVTAADTAVYYCARFRRYDDGVDYWGQGTLVTVSS VL: DIQMTQSPSAMSASVGDRVTLTCRASHEISGYLSWIQQKPGGTIKRLINAASTLASGVPSRFSGSRSGTEYTLTISSLQPEDFADYYCLQYSSYPWTFGGGTKLEIK
7720 | 0.167 | 21700 | 4H6-H1K1-IgG4 (antibody, V domains shown, Humanized) VH: QVQLQESGPGLVKPSQTLSLTCTVSGDSVSSGYWNWIRKHPGKKLEWIGFISYSGSTYYTPSLKSRVTISRDTSKNQFSLKLSSVTAADTAVYYCARFRRYDDGVDYWGQGTLVTVSS VL: DIQMTQSPSAMSASVGDRVTITCRASHEISGYLSWFQQKPGGVIKRLINAASTLASGVPSRFSGSRSGTEFTLTISSLQPEDFATYYCLQYSSYPWTFGGGTKLEIK
94.8 | 0.0282 | 298000 | 4H6-H3K4-IgG4 (antibody, V domains shown, Humanized) VH: EVQLQESGPGLVKPSQTLSLTCTVSGDSVSSGYWNWIRKHPGKKLEYMGFISYSGSTYYTPSLKSRITISRDTSKNQFSLKLSSVTAADTAVYFCARFRRYDDGVDYWGQGTLVTVSS VL: DIQMTQSPSAMSASVGDRVTLTCRASHEISGYLSWIQQKPGGTIKRLINAASTLASGVPSRFSGSRSGTEYTLTISSLQPEDFADYYCLQYSSYPWTFGGGTKLEIK
229 | 0.0554 | 242000 | 4H6-H1K3-IgG4 (antibody, V domains shown, Humanized) VH: QVQLQESGPGLVKPSQTLSLTCTVSGDSVSSGYWNWIRKHPGKKLEWIGFISYSGSTYYTPSLKSRVTISRDTSKNQFSLKLSSVTAADTAVYYCARFRRYDDGVDYWGQGTLVTVSS VL: DIQMTQSPSAMSASVGDRVTITCRASHEISGYLSWIQQKPGGTIKRLINAASTLASGVPSRFSGSRSGTEYTLTISSLQPEDFADYYCLQYSSYPWTFGGGTKLEIK
164 | 0.0632 | 386000 | 4H6-H1K2-IgG4 (antibody, V domains shown, Humanized) VH: QVQLQESGPGLVKPSQTLSLTCTVSGDSVSSGYWNWIRKHPGKKLEWIGFISYSGSTYYTPSLKSRVTISRDTSKNQFSLKLSSVTAADTAVYYCARFRRYDDGVDYWGQGTLVTVSS VL: DIQMTQSPSAMSASVGDRVTITCRASHEISGYLSWIQQKPGGTIKRLINAASTLASGVPSRFSGSRSGTEFTLTISSLQPEDFADYYCLQYSSYPWTFGGGTKLEIK
413 | 0.0342 | 82700 | 4H6-H3K1-IgG4 (antibody, V domains shown, Humanized) VH: EVQLQESGPGLVKPSQTLSLTCTVSGDSVSSGYWNWIRKHPGKKLEYMGFISYSGSTYYTPSLKSRITISRDTSKNQFSLKLSSVTAADTAVYFCARFRRYDDGVDYWGQGTLVTVSS VL: DIQMTQSPSAMSASVGDRVTITCRASHEISGYLSWFQQKPGGVIKRLINAASTLASGVPSRFSGSRSGTEFTLTISSLQPEDFATYYCLQYSSYPWTFGGGTKLEIK
253 | 0.0659 | 260000 | 4H6-H2K3-IgG4 (antibody, V domains shown, Humanized) VH: EVQLQESGPGLVKPSQTLSLTCTVSGDSVSSGYWNWIRKHPGKKLEWIGFISYSGSTYYTPSLKSRVTISRDTSKNQFSLKLSSVTAADTAVYYCARFRRYDDGVDYWGQGTLVTVSS VL: DIQMTQSPSAMSASVGDRVTITCRASHEISGYLSWIQQKPGGTIKRLINAASTLASGVPSRFSGSRSGTEYTLTISSLQPEDFADYYCLQYSSYPWTFGGGTKLEIK
194 | 0.0292 | 150000 | 7F10-mHvKv-IgG1-N297A (antibody, V domains shown, Chimeric; human IgG1 constant regions with N297A mutation (EU numbering) in the Fc region) VH: EVKLVESGGGLVQPGGSLKLSCATSGFTFSDYYMYWVRQTPEKRLEWVAYISYGGDSTFYPDTVRGRFTISRDNAKNALYLQMSRLKSEDTAVYYCARPAPSAHSYYLDYWGQGTTLTVSS VL: DIQMTQTTSSLSASLGDRVTISCRASQDISNYLNWYQQKPDGTVKLLIYYTSRLHSGLPSRFSGSGSGTDYSLTISNLEQEDIATYYCQQGKTLPFTFASGTKLEIK
594 | 0.0491 | 82800 | 7F10-H1K2-IgG4 (antibody, V domains shown, Humanized) VH: EVQLVESGGGLVQPGGSLRLSCATSGFTFSDYYMYWVRQAPGKRLEWVAYISYGGDSTFYPDTVRGRFTISRDNAKNSLYLQMNSLRAEDTAVYYCARPAPSAHSYYLDYWGQGTLLTVSS VL: DIQMTQSPSSLSASVGDRVTITCRASQDISNYLNWYQQKPGGAVKLLIYYTSRLHSGLPSRFSGSGSGTDYTFTISSLQPEDIATYYCQQGKTLPFTFASGTKLEIK
291 | 0.0514 | 177000 | 7F10-H1K1-IgG4 (antibody, V domains shown, Humanized) VH: EVQLVESGGGLVQPGGSLRLSCATSGFTFSDYYMYWVRQAPGKRLEWVAYISYGGDSTFYPDTVRGRFTISRDNAKNSLYLQMNSLRAEDTAVYYCARPAPSAHSYYLDYWGQGTLLTVSS VL: DIQMTQSPSSLSASVGDRVTITCRASQDISNYLNWYQQKPGGAVKLLIYYTSRLHSGLPSRFSGSGSGTDFTFTISSLQPEDIATYYCQQGKTLPFTFASGTKLEIK
